# In US20250352615A1, “COMPOSITIONS AND METHODS FOR THE MODULATION OF PIEZO1 AND TRPV4” (Duke University, priority 2021, published 2025):
# Columns and labels:
# Piezo1 [1] = molecular target: T1, Piezo1 (Mus musculus, UniProt E2JF22); test: Mechanical pushing-induced [Ca2+]i in pancreatic acini; format: cell-based; conditions: prior treatment with GsMTx4; blunt pipette 5 μm for 1 second
# T1 construct: endogenous in cells; host or cells: freshly isolated mouse pancreatic acini (WT = Piezo1 fl/fl on a C57BL/6J background)
# Method: A borosilicate glass pipette (Sutter Instrument) was pulled using a pipette puller P-87 (Sutter Instruments) and made blunt with an MF-900 Microforge (Narishige). Acini were pushed once with a 2- to 3-μm tip blunt pipette to 5 μm for 1 second using a micromanipulator (World Precision Instruments).
# Calcium imaging in pancreatic acini was performed as previously described. The chemicals used in calcium imaging experiments included the following: Yoda1 (Tocris; 5586), GsMTx4 (Abcam; ab141871), 5′,6′-EET (Santa Cruz Biotechnology; sc-221066), AA (Millipore Sigma; A3611), HC067047 (Tocris; 4100), GSK1016790A (Millipore Sigma; G0798), RN1734 (Tocris; 3746), AACOCF3 (Tocris; 1462), YM26734 (Tocris; 2522), GF109203X (Tocris; 0741), and CCK8 (Sigma-Aldrich).
# pancreatic acini [2] = test: Mitochondrial depolarization in pancreatic acini (TMRE); format: cell-based, mouse; conditions: GsMTx4 5 μM; Yoda1 50 μM; WT cells
# Method: Live-cell mitochondrial depolarization was analyzed using the mitochondrial labeling dye, TMRE. Isolated acini were plated on a thin-layered, Matrigel-coated, glass-bottom culture plate with DMEM/F12 and 10% FBS media and placed in a CO2 incubator for 1 hr at 37° C. After 1 hr, the acini were incubated with TMRE (200 nM) in the bath buffer containing 140 mM NaCl, 4.7 mM KCl, 2.0 CaCl2, 1 mM MgCl2, 10 mM HEPES, and 10 mM glucose (pH adjusted to 7.4 with NaOH) for 30 minutes. The TMRE dye was washed and replaced with fresh bath buffer. The images were captured with a Zeiss Axio observer Z1 microscope with MetaMorph software (Molecular Devices) at intervals of 600 ms. TMRE was excited at 540-600 nm and emission collected at 585-675 nm. Carbonyl cyanide 4-(trifluoromethoxy) phenylhydrazone (FCCP), which uncouples the oxidative phosphorylation process and depolarizes mitochondria, was used as a positive control. A maximum of 2 mitochondrial puncta were taken per acinar cell.
# pancreatic acini [3] = test: Trypsinogen activation in pancreatic acini (BZiPAR); format: cell-based, mouse; conditions: GsMTx4 5 μM
# Method: To visualize Piezo1-induced trypsinogen activation, acini were loaded with active trypsin enzyme substrate BZiPAR (10 μM). Na-HEPES buffer with 2 mM Ca^2+ was used during imaging. A Zeiss Axio observer Z1 with a high-sensitivity EMCCD camera with a ×40/0.75 EC-Plan-NeoFluar DIC objective was used to capture the Z-stack images with stack thickness of 3 μm at an interval of 12 seconds. The BZiPAR fluorescent wavelength Ex/Em was 498/521 nm. BZiPAR was excited at 470-510 nm and emission collected at 495-550 nm. The captured images were analyzed with MetaMorph software (Molecular Devices).
# Piezo1 [4] = molecular target: T1, Piezo1; test: Calcium imaging of Piezo1-mediated [Ca2+]i in mouse PSCs; format: cell-based; conditions: GsMTx4 5 μM
# Method: (§1) Mouse and human PSCs were isolated using collagenase digestion. Modified Krebs Henseleit Buffer (KHB) solution (100 mL) was prepared as previously described by Romac et al., Nat. Commun. 9(1):1715 (2018). Pancreatic tissue was digested with 2 mg of collagenase NB 8 (SERVA, catalog 17456) dissolved in 10 mL of modified KHB solution containing 1 mg soybean trypsin inhibitor (SBTI 1-S; Millipore Sigma, catalog T9003) and 20 mg BSA (Thermo Fisher Scientific; BP1600-100). Digestion solution (5 mL) was used to inflate the pancreas. Pancreas with 5 mL of digestion solution was incubated in a shaking water bath for 10 minutes at 37° C. The solution was then discarded. The pancreas tissue was cut into small pieces and digested with fresh 5 mL digestion buffer. Tissue was incubated in a shaking water bath for 40 minutes at 37° C. The cells were then separated from tissue by pipetting up-down with a 10 mL pipette and passed sequentially through a 70 μm and a 40 μm cell strainer. The filtrate was centrifuged at 150×g for 3 minutes at room temperature. The cells were washed with 10 mL Leibovitz's media (Thermo Fisher Scientific, catalog 11415-064), passed through a 20 μm filter, and centrifuged at 80×g for 3 minutes at room temperature. The supernate was removed, and isolated stellate cells were plated on a thin-layered Matrigel-coated glass bottom culture plate (MatTek, P35G-0-14-C). Before plating the cells, Matrigel solution (Corning, catalog 354234) at a ratio of 1.5:100 DMEM/F12 (Thermo Fisher Scientific, catalog 11330-032) was poured onto the culture plate and incubated for 2 hr at 37° C. to form a thin layer of Matrigel coating. Matrigel mixture was removed, and the plate was washed with PBS before cells were plated. Cell culture media, DMEM/F12 with 5% FBS was used for mouse stellate cells. Fresh, human pancreatic tissue was digested with collagenase as described above with modifications. Collagenase (2.5 mg) in 10 mL of modified KHB solution was used for digestion. The digested tissues were filtered through a 100 μm cell strainer. The cells were cultured with DMEM/F12 with 10% FBS in a Matrigel-coated plate. After 24 hr, the cell media was replaced with fresh media to remove unattached and dead cells. After 2 days, cells were immunostained for GFAP and used for experiments. Perinuclear fat droplets were stained with BODIPY 493/503 (4,4-Difluoro-1,3,5,7,8-Pentamethyl-4-Bora-3a,4a-Diaza-s-Indacene; Invitrogen, catalog D3922) to confirm stellate cell quiescence. The cell viability following Yoda1 treatment was analyzed using the Live/Dead cell imaging kit (Thermo Fisher Scientific, catalog R37601). RNAs were isolated using the RiboPure Kit (Invitrogen, catalog AM1924) according to manufacturer's instructions.
# (§2) Fluid shear stress and mechanical pushing applied to stellate cells were achieved as previously described by Wang et al., J. Clin. Invest. 126(12): 4527-4536 (2016). Parallel-plate fluid flow chambers (μ-Slide I 0.4 Luer, or μ-Slide I 0.2 Luer from Ibidi) were used for fluid shear stress experiments. The fluid shear stress (T) was calculated using the formula: τ=η×[…] φ for μ-Slide I 0.4 Luer and τ=η×330.4 φ for μ-Slide I 0.2 Luer, where r represents viscosity of the medium and φ represents flow rate (according to the manufacturer's instructions, Ibidi). Mechanical pushing was achieved by applying a blunt borosilicate glass pipette once to the cell membrane with a deflection of 2-3 μm for 1 second using a micromanipulator (World Precision Instruments).
# Calcium 6-QF (Molecular Devices) dye was used for live-cell calcium imaging as described by Romac et al., Nat. Commun. 9(1):1715 (2018). Cells were imaged in HBSS buffer with 2 mM Ca^2+. Faintly and highly fluorescent loaded cells were excluded from analysis. […]
# Piezo1 [5] = molecular target: T2, Piezo1 (Homo sapiens, UniProt Q92508); test: Calcium imaging of Piezo1-mediated [Ca2+]i in human PSCs; format: cell-based; conditions: GsMTx4 5 μM, human PSCs
# T2 construct: Fresh, human pancreatic tissue was digested with collagenase as described above with modifications; endogenous in cells; host or cells: primary human pancreatic stellate cells from fresh human pancreatic tissue
# Method: Mouse and human PSCs were isolated using collagenase digestion. Modified Krebs Henseleit Buffer (KHB) solution (100 mL) was prepared as previously described by Romac et al., Nat. Commun. 9(1):1715 (2018). Pancreatic tissue was digested with 2 mg of collagenase NB 8 (SERVA, catalog 17456) dissolved in 10 mL of modified KHB solution containing 1 mg soybean trypsin inhibitor (SBTI 1-S; Millipore Sigma, catalog T9003) and 20 mg BSA (Thermo Fisher Scientific; BP1600-100). Digestion solution (5 mL) was used to inflate the pancreas. Pancreas with 5 mL of digestion solution was incubated in a shaking water bath for 10 minutes at 37° C. The solution was then discarded. The pancreas tissue was cut into small pieces and digested with fresh 5 mL digestion buffer. Tissue was incubated in a shaking water bath for 40 minutes at 37° C. The cells were then separated from tissue by pipetting up-down with a 10 mL pipette and passed sequentially through a 70 μm and a 40 μm cell strainer. The filtrate was centrifuged at 150×g for 3 minutes at room temperature. The cells were washed with 10 mL Leibovitz's media (Thermo Fisher Scientific, catalog 11415-064), passed through a 20 μm filter, and centrifuged at 80×g for 3 minutes at room temperature. The supernate was removed, and isolated stellate cells were plated on a thin-layered Matrigel-coated glass bottom culture plate (MatTek, P35G-0-14-C). […] The cell viability following Yoda1 treatment was analyzed using the Live/Dead cell imaging kit (Thermo Fisher Scientific, catalog R37601). […]
# Fluid shear stress and mechanical pushing applied to stellate cells were achieved as previously described by Wang et al., J. Clin. Invest. […] The fluid shear stress (T) was calculated using the formula: τ=η×[…] φ for μ-Slide I 0.4 Luer and τ=η×330.4 φ for μ-Slide I 0.2 Luer, where r represents viscosity of the medium and φ represents flow rate (according to the manufacturer's instructions, Ibidi). […]
# human PSCs = test: Human PSC activation and fibrogenic response (fat droplets, cell shape, ECM mRNA and immunostaining); format: cell-based; conditions: GsMTx4 5 μM, 12 or 25 dyne/cm^2 for 10 minutes
# Method: as §1, §2
# Mouse and human PSCs were washed with PBS (pH 7.4) and fixed with 4% paraformaldehyde for 10 minutes at room temperature. The fixed cells were treated with 0.1% Triton X-100. […]
# Piezo1 [6] = molecular target: T1, Piezo1; conditions: pancreatic acini; recently reported; cited from earlier work
# T1 sequence (E2JF22 whole entry): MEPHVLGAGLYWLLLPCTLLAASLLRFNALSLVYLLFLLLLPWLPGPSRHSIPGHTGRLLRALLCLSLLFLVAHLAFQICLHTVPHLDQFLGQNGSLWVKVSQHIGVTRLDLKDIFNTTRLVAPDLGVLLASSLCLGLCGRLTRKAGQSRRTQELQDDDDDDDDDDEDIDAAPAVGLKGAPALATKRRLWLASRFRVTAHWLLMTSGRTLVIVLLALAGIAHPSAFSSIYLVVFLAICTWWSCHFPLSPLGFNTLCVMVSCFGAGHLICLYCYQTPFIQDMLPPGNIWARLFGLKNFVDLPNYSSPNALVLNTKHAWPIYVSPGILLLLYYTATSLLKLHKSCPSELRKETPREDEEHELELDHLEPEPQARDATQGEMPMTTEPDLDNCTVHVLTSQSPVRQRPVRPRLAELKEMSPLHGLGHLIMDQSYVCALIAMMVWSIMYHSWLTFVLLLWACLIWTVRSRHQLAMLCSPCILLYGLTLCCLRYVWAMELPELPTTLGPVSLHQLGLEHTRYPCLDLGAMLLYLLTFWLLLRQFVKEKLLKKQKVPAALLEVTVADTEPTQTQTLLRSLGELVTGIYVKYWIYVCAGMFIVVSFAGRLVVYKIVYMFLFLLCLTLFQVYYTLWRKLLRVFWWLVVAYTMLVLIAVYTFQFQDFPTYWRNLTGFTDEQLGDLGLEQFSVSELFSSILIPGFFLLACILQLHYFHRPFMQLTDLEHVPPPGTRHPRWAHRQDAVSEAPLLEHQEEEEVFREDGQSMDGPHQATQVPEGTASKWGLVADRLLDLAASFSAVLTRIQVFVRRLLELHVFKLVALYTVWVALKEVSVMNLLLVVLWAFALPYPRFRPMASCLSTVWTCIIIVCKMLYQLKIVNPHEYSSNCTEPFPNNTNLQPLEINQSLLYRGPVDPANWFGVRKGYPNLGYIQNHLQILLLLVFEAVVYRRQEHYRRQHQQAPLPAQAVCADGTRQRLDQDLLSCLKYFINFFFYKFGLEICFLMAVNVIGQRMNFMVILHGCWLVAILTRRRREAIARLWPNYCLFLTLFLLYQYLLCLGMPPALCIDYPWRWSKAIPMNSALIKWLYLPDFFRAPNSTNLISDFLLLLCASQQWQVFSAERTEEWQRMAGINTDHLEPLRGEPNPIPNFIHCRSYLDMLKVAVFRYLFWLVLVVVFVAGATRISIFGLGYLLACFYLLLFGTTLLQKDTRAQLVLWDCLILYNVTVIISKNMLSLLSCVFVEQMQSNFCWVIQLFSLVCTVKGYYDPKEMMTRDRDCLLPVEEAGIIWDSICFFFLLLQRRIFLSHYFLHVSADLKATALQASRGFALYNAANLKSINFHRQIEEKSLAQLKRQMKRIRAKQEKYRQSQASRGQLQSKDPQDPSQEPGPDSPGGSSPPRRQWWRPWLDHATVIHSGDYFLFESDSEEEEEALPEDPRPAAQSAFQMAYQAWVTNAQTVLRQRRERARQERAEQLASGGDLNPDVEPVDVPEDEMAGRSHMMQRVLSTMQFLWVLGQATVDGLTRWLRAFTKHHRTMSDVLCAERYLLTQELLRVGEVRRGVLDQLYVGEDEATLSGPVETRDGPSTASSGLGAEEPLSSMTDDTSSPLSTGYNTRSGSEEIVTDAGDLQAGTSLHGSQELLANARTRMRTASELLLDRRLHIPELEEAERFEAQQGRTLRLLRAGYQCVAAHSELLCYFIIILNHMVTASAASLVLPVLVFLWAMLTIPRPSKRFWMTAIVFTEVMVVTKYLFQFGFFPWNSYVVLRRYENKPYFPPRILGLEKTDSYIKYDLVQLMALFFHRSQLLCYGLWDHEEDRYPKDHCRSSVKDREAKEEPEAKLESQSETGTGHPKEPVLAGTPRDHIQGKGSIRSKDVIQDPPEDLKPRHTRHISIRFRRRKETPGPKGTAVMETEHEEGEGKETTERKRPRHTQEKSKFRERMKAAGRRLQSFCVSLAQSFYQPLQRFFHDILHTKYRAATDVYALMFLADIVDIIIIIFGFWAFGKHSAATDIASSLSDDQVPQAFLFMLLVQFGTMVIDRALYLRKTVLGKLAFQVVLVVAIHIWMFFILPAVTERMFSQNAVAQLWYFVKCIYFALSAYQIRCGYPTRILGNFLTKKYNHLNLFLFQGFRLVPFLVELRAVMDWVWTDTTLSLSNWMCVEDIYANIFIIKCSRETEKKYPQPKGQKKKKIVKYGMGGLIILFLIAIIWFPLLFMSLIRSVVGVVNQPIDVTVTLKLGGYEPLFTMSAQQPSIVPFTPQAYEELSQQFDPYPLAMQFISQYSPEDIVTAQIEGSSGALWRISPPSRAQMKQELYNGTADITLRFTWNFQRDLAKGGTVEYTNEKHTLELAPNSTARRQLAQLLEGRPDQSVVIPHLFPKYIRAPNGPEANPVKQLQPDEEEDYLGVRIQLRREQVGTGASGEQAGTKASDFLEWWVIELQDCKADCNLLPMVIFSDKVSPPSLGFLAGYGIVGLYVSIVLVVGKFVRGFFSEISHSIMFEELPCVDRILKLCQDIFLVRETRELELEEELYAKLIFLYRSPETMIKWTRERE
# T2 sequence (Q92508 whole entry): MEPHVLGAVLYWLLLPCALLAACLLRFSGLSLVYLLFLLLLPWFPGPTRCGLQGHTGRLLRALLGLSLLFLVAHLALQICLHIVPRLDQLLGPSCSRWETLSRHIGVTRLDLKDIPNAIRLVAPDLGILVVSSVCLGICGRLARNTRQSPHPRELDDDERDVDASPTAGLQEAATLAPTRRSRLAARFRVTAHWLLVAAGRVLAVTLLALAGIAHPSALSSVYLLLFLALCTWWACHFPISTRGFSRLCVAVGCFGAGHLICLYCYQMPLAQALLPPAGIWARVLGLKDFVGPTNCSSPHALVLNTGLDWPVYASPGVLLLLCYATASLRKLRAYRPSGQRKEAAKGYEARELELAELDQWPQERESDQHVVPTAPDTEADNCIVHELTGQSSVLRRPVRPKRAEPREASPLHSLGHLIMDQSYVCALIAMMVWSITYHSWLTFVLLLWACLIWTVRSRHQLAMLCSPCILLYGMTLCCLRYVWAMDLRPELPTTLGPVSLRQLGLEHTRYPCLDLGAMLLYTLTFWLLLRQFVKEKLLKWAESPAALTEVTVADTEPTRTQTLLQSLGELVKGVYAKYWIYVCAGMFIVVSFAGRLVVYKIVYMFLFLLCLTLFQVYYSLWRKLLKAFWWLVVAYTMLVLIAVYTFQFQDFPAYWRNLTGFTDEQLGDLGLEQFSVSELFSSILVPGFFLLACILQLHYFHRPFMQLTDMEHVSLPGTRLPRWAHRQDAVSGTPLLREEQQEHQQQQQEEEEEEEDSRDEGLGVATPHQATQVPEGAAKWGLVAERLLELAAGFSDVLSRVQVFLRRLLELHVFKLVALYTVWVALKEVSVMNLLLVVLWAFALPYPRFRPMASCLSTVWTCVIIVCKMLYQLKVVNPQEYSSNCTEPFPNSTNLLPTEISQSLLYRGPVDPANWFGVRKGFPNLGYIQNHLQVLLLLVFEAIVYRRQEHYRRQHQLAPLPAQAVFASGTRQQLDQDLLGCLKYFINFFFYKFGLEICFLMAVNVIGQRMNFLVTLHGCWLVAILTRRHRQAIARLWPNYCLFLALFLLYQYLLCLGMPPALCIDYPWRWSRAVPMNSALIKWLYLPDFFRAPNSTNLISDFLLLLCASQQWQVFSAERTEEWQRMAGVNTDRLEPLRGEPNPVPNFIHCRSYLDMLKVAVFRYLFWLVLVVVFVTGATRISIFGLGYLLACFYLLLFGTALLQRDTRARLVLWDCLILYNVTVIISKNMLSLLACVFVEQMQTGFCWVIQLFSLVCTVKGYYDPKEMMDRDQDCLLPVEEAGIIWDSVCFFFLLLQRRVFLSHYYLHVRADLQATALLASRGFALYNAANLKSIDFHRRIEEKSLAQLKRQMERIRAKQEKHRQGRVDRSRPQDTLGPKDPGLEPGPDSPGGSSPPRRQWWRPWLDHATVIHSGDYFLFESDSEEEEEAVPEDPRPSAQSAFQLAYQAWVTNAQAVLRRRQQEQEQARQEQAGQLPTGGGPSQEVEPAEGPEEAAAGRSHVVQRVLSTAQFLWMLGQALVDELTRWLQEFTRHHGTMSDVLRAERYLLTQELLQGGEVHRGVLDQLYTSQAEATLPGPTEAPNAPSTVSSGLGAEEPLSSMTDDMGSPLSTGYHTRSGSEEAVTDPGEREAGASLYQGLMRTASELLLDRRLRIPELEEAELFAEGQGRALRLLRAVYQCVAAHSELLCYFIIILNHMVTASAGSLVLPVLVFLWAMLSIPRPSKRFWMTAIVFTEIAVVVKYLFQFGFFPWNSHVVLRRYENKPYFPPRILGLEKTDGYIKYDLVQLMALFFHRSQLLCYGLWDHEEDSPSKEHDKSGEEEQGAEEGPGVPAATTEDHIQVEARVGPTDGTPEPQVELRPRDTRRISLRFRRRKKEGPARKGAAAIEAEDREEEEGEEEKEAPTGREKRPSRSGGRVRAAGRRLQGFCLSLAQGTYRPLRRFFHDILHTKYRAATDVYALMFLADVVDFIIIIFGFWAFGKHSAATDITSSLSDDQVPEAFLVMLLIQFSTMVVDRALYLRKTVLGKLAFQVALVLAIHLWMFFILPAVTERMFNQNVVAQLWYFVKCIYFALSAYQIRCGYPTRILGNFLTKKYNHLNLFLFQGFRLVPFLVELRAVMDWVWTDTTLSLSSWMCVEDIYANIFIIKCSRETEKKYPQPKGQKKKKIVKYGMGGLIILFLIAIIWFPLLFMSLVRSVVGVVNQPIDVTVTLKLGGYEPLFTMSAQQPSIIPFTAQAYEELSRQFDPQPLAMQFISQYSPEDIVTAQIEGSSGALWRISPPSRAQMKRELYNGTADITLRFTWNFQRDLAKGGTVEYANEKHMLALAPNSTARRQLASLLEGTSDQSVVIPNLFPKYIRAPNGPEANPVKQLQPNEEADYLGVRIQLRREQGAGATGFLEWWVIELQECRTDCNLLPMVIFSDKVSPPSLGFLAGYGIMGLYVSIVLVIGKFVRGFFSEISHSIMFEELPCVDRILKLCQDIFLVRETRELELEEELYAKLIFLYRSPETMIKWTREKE
substance,measurement,setting,value
"GsMTx4 (GCLEFWWKCNPNDDKCCRPKLKCSKLFKLCNFSF; HELM PEPTIDE1{G.C.L.E.F.W.W.K.C.N.P.N.D.D.K.C.C.R.P.K.L.K.C.S.K.L.F.K.L.C.N.F.S.F.[am]}$PEPTIDE1,PEPTIDE1,16:R3-30:R3|PEPTIDE1,PEPTIDE1,2:R3-17:R3|PEPTIDE1,PEPTIDE1,9:R3-23:R3$$$V2.0; N-terminus assumed; SMILES CC(C)C[C@@H]1NC(=O)[C@@H](NC(=O)CN)CSSC[C@@H]2NC(=O)[C@@H]3CSSC[C@@H](C(=O)N[C@@H](CC(N)=O)C(=O)N[C@@H](Cc4ccccc4)C(=O)N[C@@H](CO)C(=O)N[C@@H](Cc4ccccc4)C(N)=O)NC(=O)[C@H](CC(C)C)NC(=O)[C@H](CCCCN)NC(=O)[C@H](Cc4ccccc4)NC(=O)[C@H](CC(C)C)NC(=O)[C@H](CCCCN)NC(=O)[C@H](CO)NC(=O)[C@H](CSSC[C@H](NC(=O)[C@H](CCCCN)NC(=O)[C@H](Cc4c[nH]c5ccccc45)NC(=O)[C@H](Cc4c[nH]c5ccccc45)NC(=O)[C@H](Cc4ccccc4)NC(=O)[C@H](CCC(=O)O)NC1=O)C(=O)N[C@@H](CC(N)=O)C(=O)N1CCC[C@H]1C(=O)N[C@@H](CC(N)=O)C(=O)N[C@@H](CC(=O)O)C(=O)N[C@@H](CC(=O)O)C(=O)N[C@@H](CCCCN)C(=O)N3)NC(=O)[C@H](CCCCN)NC(=O)[C@H](CC(C)C)NC(=O)[C@H](CCCCN)NC(=O)[C@@H]1CCCN1C(=O)[C@H](CCCNC(=N)N)NC2=O; UniProt Q7YT39 47-80, looked up)",effect on mechanical pushing-induced transient [Ca2+]i rise,Piezo1 [1],completely blocked
same,effect on Yoda1-induced mitochondrial depolarization,pancreatic acini [2],blocked the Yoda1-induced mitochondrial depolarization
same,effect on Yoda1-induced trypsin activation,pancreatic acini [3],blocked the Yoda1-induced trypsin activation
same,effect on Yoda1-induced calcium rise,Piezo1 [4]; mouse PSCs,blocked the calcium rise produced by Yoda1
same,effect on shear stress-induced transient [Ca2+]i elevation in TRPV4-null PSCs,Piezo1 [4]; 12 dyne/cm^2 for 1 minute,blocked the effects of high shear stress (12 dyne/cm^2 for 1 minute) on the transient [Ca^2+]i elevation
same,effect on Yoda1 (25 μM)-mediated [Ca2+]i rise,Piezo1 [5],sensitive to GsMTx4 blockade
same,effect on fluid shear stress-induced sustained [Ca2+]i increase,Piezo1 [5]; 12 dyne/cm^2 for 1 minute,blocked
same,"effect on shear stress-mediated pathological changes (fat droplet loss, fibronectin, collagen type I)",human PSCs,attenuated the shear stress-mediated pathological changes
same,effect on Yoda1-mediated [Ca2+]i rise,Piezo1 [6],inhibits the Yoda1-mediated [Ca^2+]i rise
